Here are results for one molecule from article PMC12014907.

This test concerns the target STAT3^136-705, P40763. Description: thermal shift assay. The following applies: chain shown with the change; 25 μM phosphopeptides; parent: est. 54; read off a plot.

STAT3^136-705, P40763, sequence (P40763 136-705): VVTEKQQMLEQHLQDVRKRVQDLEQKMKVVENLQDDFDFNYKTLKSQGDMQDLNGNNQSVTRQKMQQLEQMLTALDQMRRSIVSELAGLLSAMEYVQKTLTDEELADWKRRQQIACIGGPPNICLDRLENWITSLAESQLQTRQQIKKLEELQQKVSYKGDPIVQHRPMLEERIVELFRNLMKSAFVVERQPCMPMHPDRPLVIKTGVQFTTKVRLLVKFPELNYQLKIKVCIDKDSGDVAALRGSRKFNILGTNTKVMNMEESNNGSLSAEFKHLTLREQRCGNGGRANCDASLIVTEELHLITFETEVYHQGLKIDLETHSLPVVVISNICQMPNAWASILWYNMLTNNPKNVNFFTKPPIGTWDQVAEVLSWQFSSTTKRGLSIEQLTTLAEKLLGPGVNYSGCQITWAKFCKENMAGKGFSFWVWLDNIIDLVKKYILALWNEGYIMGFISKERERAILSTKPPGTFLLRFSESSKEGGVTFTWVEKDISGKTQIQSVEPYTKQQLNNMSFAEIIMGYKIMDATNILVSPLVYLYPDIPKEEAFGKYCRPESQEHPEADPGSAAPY

With SGYIHQVPSV [gp130 phosphopeptide R168I], the other: Tm of STAT3 with bound peptide (thermal shift) was found to be 55 °C.
